{"source": "paper PMC3511906", "about": "(Biochemistry, 2012)", "proteins": {"B1": {"name": "MIP-2/CXCL2 (murine macrophage inflammatory protein-2) (natural protein, UniProt P10889 28-100, looked up)", "chain": "AVVASELRCQCLKTLPRVDFKNIQSLSVTPPGPHCAQTEVIATLKGGQKVCLDPEAPLVQKIIQKILNKGKAN"}}, "target": "the molecule itself", "assay": "crystal structure", "data": [{"protein": "B1", "values": [{"measurement": "stoichiometry N", "result": 2}]}]}
